Reference: patent US20160102129A1 (Novo Nordisk, published 2016)
*1 amine or outer side, *2 acyl side, *3 side chain or, on linkers, in order; H or OH if unused. Where no end group is shown, it is not given here. Side-chain parts run from the residue outwards. [ ]: non-standard residue; d: D form. The star is where a group is joined. C20 diacid = O=C(O)CCCCCCCCCCCCCCCCCCC(=O)*; C18 diacid = O=C(O)CCCCCCCCCCCCCCCCC(=O)*; γGlu = O=C(O)[C@H](CCC(=O)[*:2])N[*:1]; Desaminohistidyl = O=C(CCc1c[nH]cn1)*; Ac4c = NC1(C(=O)O)CCC1; AEEA = NCCOCCOCC(=O)O; Aib = CC(C)(N)C(=O)O

How the values were obtained:
human glucagon receptor [1] = target: T1, human glucagon receptor (human, UniProt P47871 26-477); assay: cell-based or functional assay
T1 sequence (P47871 26-477): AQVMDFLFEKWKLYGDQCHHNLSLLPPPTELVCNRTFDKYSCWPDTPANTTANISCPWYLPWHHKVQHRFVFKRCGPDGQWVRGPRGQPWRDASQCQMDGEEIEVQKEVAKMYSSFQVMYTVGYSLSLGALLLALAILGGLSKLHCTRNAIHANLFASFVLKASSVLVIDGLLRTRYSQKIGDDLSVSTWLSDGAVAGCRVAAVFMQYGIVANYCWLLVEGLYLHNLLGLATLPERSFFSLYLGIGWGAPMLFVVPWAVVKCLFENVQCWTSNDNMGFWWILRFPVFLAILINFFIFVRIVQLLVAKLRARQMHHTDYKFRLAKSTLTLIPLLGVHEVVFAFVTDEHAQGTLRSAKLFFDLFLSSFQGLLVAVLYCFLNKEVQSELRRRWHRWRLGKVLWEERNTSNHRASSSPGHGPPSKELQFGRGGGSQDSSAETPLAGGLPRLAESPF

human GLP-1 receptor [2] = target: T2, human GLP-1 receptor (human, UniProt P43220 24-463); assay: cell-based or functional assay
human GLP-1 receptor [3] = target: T2, human GLP-1 receptor; assay: SPA displacement of [125I]GLP-1(7-36)NH2 from hGLP-1R BHK membranes
Experimental: The GLP-1 receptor binding of each derivatives were determined with competitive binding, displacing [¹²⁵I]GLP-1 bound to GLP-1 receptors expressed in cell membranes associated with wheat germ agglutinin (WGA) scintillation proximity assay (SPA) beads. Each derivative was added in a series of concentrations to isolated membranes comprising the human GLP-1 receptor and displacement of the labelled radioligand was monitored. The receptor binding was reported as the concentration at which half of the labelled ligand is displaced from the receptor, the IC⁵⁰ value.
1. For the receptor binding assay 50 μl of the assay buffer was added to each well of an assay plate. [0588] 2. Test compounds were serially diluted to give the following concentrations: 8×10EE-7 M, 8×10EE-8 M, 8×10EE-9 M, 8×10EE-10 M, 8×10EE-11 M, 8×10EE-12 M and 8×10EE-13 M. Twenty-five μl were added to appropriate wells in the assay plate. [0589] 3. Cell membrane aliquots were thawed and diluted to their working concentration. Fifty μl were added to each well in the assay plate. [0590] 4. WGA SPA beads were suspended in assay buffer at 20 mg/ml. The suspension was diluted to 10 mg/ml in assay buffer just prior to addition to the assay plate. Fifty μl were added to each well in the assay plate. [0591] 5. […] A 25 μl aliquot was reserved for measuring total counts/well. [0592] 6. The assay plate was incubated for 2 h at 30° C. [0593] 7. The assay plate was centrifuged for 10 min. [0594] 8. The assay plate was read in a Perkin Elmer TopCount NXT instrument.

human glucagon receptor [4] = target: T1, human glucagon receptor; assay: SPA displacement of [125I]-glucagon from human glucagon receptor BHK membranes
Experimental: 1. For the receptor binding assay 50 μl of the assay buffer was added to each well of an assay plate. [0603] 2. Test compounds were serially diluted to give the following concentrations: 8×10EE-7 M, 8×10EE-8 M, 8×10EE-9 M, 8×10EE-10 M, 8×10EE-11 M, 8×10EE-12 M and 8×10EE-13 M. Twenty-five μl were added to appropriate wells in the assay plate. [0604] 3. Cell membrane aliquots were thawed and diluted to their working concentration. Fifty μl were added to each well in the assay plate. [0605] 4. WGA SPA beads were suspended in assay buffer at 20 mg/ml. The suspension was diluted to 10 mg/ml in assay buffer just prior to addition to the assay plate. Fifty μl were added to each well in the assay plate. [0606] 5. […] A 25 μl aliquot was reserved for measuring total counts/well. […] 6. The assay plate was incubated for 2 h at 25° C. [0608] 7. The assay plate was centrifuged for 10 min at 1500 rpm. [0609] 8. The assay plate was read in a Perkin Elmer TopCount NXT instrument.

Binder	EC50 GlucagonR [pM], CRE luciferase reporter gene assay (human glucagon receptor [1])	EC50 GLP-1R [pM], CRE luciferase reporter gene assay (human GLP-1 receptor [2])	IC50 (human GLP-1 receptor [3])	IC50 (human glucagon receptor [4])
[Desaminohistidyl][Aib]HGTFTSDVSKYLEARAAREFIAWLLKGGG (not fully specified (residue 28); printed as Nε34-[(4S)-4-carboxy-4-[[2-[2-[2-[[2-[2-[2-[[(4S)-4-carboxy-4-[[(4S)-4-carboxy-4-(17-carboxyheptadecanoylamino)butanoyl]amino]butanoyl]amino]ethoxy]ethoxy]acetyl]amino]ethoxy]ethoxy]acetyl]amino]butanoyl]-[Imp7,Aib8,His9,Lys18,Ala22,Arg23,Arg26,Leu33,Gly36]-GLP-1-(7-37)-peptide)	39.4 pM	2.2 pM	0.3 nM	3.7 nM
[Desaminohistidyl][Aib]HGTFTSDVSRYLEGRAAREFIAWLLK([γGlu-γGlu-AEEA-γGlu-γGlu-C18 diacid])GAG	248 pM	3 pM	1 nM	18.8 nM
[Desaminohistidyl][Aib]HGTFTSDVSKYLEEQAAREFIAWLLK([Ado-Ado-γGlu-C18 diacid])T-NH2	83 pM	6 pM	0.7 nM	20.3 nM
[Desaminohistidyl][Aib]HGTFTSDVSKYLEEQAAREFIAWLLK([Gly-Ser-Glu-Gly-Ser-γGlu-γGlu-C20 diacid])T-NH2	111 pM	5 pM	0.4 nM	6 nM
[Desaminohistidyl][Aib]HGTFTSDVSRYLEEQAARK([AEEA-AEEA-γGlu-γGlu-γGlu-C18 diacid])FIAWLLR	143 pM	7 pM	2.9 nM	21.2 nM
[Desaminohistidyl]AHGTFTSDVSKYLEGRAAREFIAWLLK([Ado-Ado-γGlu-γGlu-γGlu-C18 diacid])T-NH2	229 pM	8 pM	1 nM	25.9 nM
[Desaminohistidyl]AHGTFTSDVSRYLEEQAARK([AEEA-AEEA-γGlu-γGlu-γGlu-C18 diacid])FIAWLLR	1290 pM	8 pM	2.2 nM	126 nM
[Desaminohistidyl][Aib]HGTFTSDVSKYLEEQAAREFIAWLLK([γGlu-γGlu-Ser-Gly-Glu-Ser-Gly-C18 diacid])T (Named as peptide, not peptide amide (C-terminal acid))	84.5 pM	5.5 pM	2.3 nM	11.9 nM
[Desaminohistidyl][Ac4c]HGTFTSDVSKYLEGRAAREFIAWLLK([Gly-Ser-Glu-Gly-Ser-γGlu-γGlu-C18 diacid])T-NH2	28 pM	12 pM	0.3 nM	7.2 nM
[Desaminohistidyl][Ac4c]HGTFTSDVSKYLEEQAAREFIAWLLKK([Gly-Ser-Glu-Gly-Ser-γGlu-γGlu-C18 diacid])-NH2	163 pM	2 pM	0.1 nM	43.9 nM
XXHGTFTSDYSKYLERRAAREFIAWLLKK (Imp (desamino-His) at 7; Acb at 8; Lys35 N-epsilon acylated with 17-carboxyheptadecanoyl-γGlu-γGlu-Ado-γGlu-Ado-γGlu-Ado-γGlu-; C-terminal amide (GLP-1(7-37) numbering))	54 pM	8 pM	1.8 nM	8.6 nM
XXHGTFTSDYSRYLEGRAAREFIAWLLRK (Imp (desamino-His) at 7; Acb at 8; Lys35 N-epsilon acylated with 17-carboxyheptadecanoyl-γGlu-γGlu-Ado-γGlu-Ado-γGlu-Ado-γGlu-; C-terminal amide (GLP-1(7-37) numbering))	226 pM	18.5 pM	6.8 nM	36.7 nM
[Desaminohistidyl][Ac4c]HGTFTSDYSKYLEEQAAREFIAWLLKK([Gly-Ser-Glu-Gly-Ser-γGlu-γGlu-C18 diacid])-NH2	117 pM	5.7 pM	0.7 nM	16 nM
[Desaminohistidyl][Aib]HGTFTSDVSRYLEGQAAREFIAWLLK([Gly-Ser-Glu-Gly-Ser-γGlu-γGlu-C18 diacid])T-NH2	143 pM	17 pM	0.9 nM	8.9 nM
XXHGTFTSDYSRYLEEQAAREFIAWLLRK (Imp (desamino-His) at 7; Acb at 8; Lys35 N-epsilon acylated with 17-carboxyheptadecanoyl-γGlu-γGlu-Ado-γGlu-Ado-γGlu-Ado-γGlu-; C-terminal amide (GLP-1(7-37) numbering))	71 pM	3 pM	0.9 nM	5.6 nM
XXHGTFTSDYSKYLEGRAAREFIAWLLKK (Imp (desamino-His) at 7; Acb at 8; Lys35 N-epsilon acylated with 17-carboxyheptadecanoyl-γGlu-γGlu-Ado-γGlu-Ado-γGlu-Ado-γGlu-; C-terminal amide (GLP-1(7-37) numbering))	222 pM	16 pM	7.3 nM	22.5 nM
XXHGTFTSDYSKYLEEQAAREFIAWLLKK (Imp (desamino-His) at 7; Acb at 8; Lys35 N-epsilon acylated with 17-carboxyheptadecanoyl-γGlu-γGlu-Ado-γGlu-Ado-γGlu-Ado-γGlu-; C-terminal amide (GLP-1(7-37) numbering))	78 pM	3 pM	1.4 nM	6.9 nM
[Desaminohistidyl][Aib]HGTFTSDVSKYLEAQAAREFIAWLLK([γGlu-γGlu-Ado-γGlu-γGlu-C18 diacid])T-NH2	21 pM	3 pM	0.6 nM	1.7 nM
XXHGTFTSDYSKYLERQAAREFIAWLLKK (Imp (desamino-His) at 7; Acb at 8; Lys35 N-epsilon acylated with 17-carboxyheptadecanoyl-γGlu-γGlu-Ado-γGlu-Ado-γGlu-Ado-γGlu-; C-terminal amide (GLP-1(7-37) numbering))	84 pM	7 pM	2.3 nM	11.7 nM
[Desaminohistidyl][Aib]HGTFTSDVSRYLEEQAAREFIAWLLK([Gly-Ser-Glu-Gly-Ser-γGlu-γGlu-C18 diacid])T-NH2	60 pM	6 pM	0.5 nM	3.8 nM
